Measured values taken from patent publication US20150299296A1 (Chugai, published 2015).
Residue numbers refer to the chain shown, from its start.

B1: IL6R-BP201/IL6R-L (antibody, human IgG1, kappa, name in EU numbering)
heavy: QVQLQESGPGLVKPSETLSLTCAVSGHSISHDHAWSWVRQPPGEGLEWIGFISYSGITNYNPSLQGRVTISRDNSKNTLYLQMNSLRAEDTAVYYCARSLARTTAMDYWGEGTLVTVSSASTKGPSVFPLAPSSKSTSGGTAALGCLVKDYFPEPVTVSWNSGALTSGVHTFPAVLQSSGLYSLSSVVTVPSSSLGTQTYICNVNHKPSNTKVDKKVEPKSCDKTHTCPPCPAPDLLGDDSVFLFPPKPKDTLMISRTPEVTCVVVDVSHEDGEVKFNWYVDGVEVHNAKTKPREEQYNSTYRVVSVLTVLHQDWLNGKEYKCKVSNKALPRPIEKTISKAKGQPREPQVYTLPPSRDELTKNQVSLTCLVKGFYPSDIAVEWESNGQPENNYKTTPPVLDSDGSFFLYSKLTVDKSRWQQGNVFSCSVMHEALHNHYTQESLSLSP
light: not shown
B2: IL6R-BP083/IL6R-L (antibody, human IgG1, kappa, name in EU numbering)
heavy: B1 heavy with D235E, D239G, G273P, Y298D, R332K
light: not shown
B3: IL6R-BP085/IL6R-L (antibody, human IgG1, kappa, name in EU numbering)
heavy: B1 heavy with D235E, G273P, R332K
light: not shown
B4: IL6R-BP190/IL6R-L (antibody, human IgG1, kappa, name in EU numbering)
heavy: B1 heavy with D235E, H270D, R332K
light: not shown
B5: IL6R-BP205/IL6R-L (antibody, human IgG1, kappa, name in EU numbering)
heavy: B1 heavy with D239G, Y298D
light: not shown
B6: IL6R-BP089/IL6R-L (antibody, human IgG1, kappa, name in EU numbering)
heavy: B1 heavy with D235E, L236Y, D239G, G273P, K328A, R332K
light: not shown
B7: IL6R-BP176/IL6R-L (antibody, human IgG1, kappa, name in EU numbering)
heavy: B1 heavy with D239G, G273P, K328D, R332K
light: not shown
B8: IL6R-BP144/IL6R-L (antibody, human IgG1, kappa, name in EU numbering)
heavy: B1 heavy with D235E, G273P, K328A, R332A
light: not shown
B9: IL6R-BP204/IL6R-L (antibody, human IgG1, kappa, name in EU numbering)
heavy: B1 heavy with D239G, K328A
light: not shown
B10: IL6R-BP132/IL6R-L (antibody, human IgG1, kappa, name in EU numbering)
heavy: B1 heavy with D239G, G273P, K328A, R332K
light: not shown
B11: IL6R-BP151/IL6R-L (antibody, human IgG1, kappa, name in EU numbering)
heavy: B1 heavy with L236Y, G273P, K328A
light: not shown
B12: IL6R-BP133/IL6R-L (antibody, human IgG1, kappa, name in EU numbering)
heavy: B1 heavy with L236Y, D239G, G273P, R332K
light: not shown
B13: IL6R-BP087/IL6R-L (antibody, human IgG1, kappa, name in EU numbering)
heavy: B1 heavy with D235E, L236Y, D239G, G273P, R332K
light: not shown
B14: IL6R-2B261/IL6R-L (antibody, human IgG1, kappa, name in EU numbering)
heavy: B1 heavy with D239G, G273P, Y298D, R332A
light: not shown
B15: IL6R-BP191/IL6R-L (antibody, human IgG1, kappa, name in EU numbering)
heavy: B1 heavy with D239G, H270D, K328A, R332K
light: not shown
B16: IL6R-BP195/IL6R-L (antibody, human IgG1, kappa, name in EU numbering)
heavy: B1 heavy with L236Y, H270D, Y298D, K328A, R332K
light: not shown
notes: Same printed alterations as IL6R-BP197
B17: IL6R-BP143/IL6R-L (antibody, human IgG1, kappa, name in EU numbering)
heavy: B1 heavy with D235E, L236Y, D239G, G273P, K328A, R332A
light: not shown
B18: IL6R-BP084/IL6R-L (antibody, human IgG1, kappa, name in EU numbering)
heavy: B1 heavy with D235E, D239G, G273P, V325M, R332K
light: not shown
B19: IL6R-BP182/IL6R-L (antibody, human IgG1, kappa, name in EU numbering)
heavy: B1 heavy with D239G, Y298D, R332K
light: not shown
B20: IL6R-BP129/IL6R-L (antibody, human IgG1, kappa, name in EU numbering)
heavy: B1 heavy with D239G, G273P, Y298D, R332K
light: not shown
B21: IL6R-BP145/IL6R-L (antibody, human IgG1, kappa, name in EU numbering)
heavy: B1 heavy with D235E, L236Y, G273P, R332A
light: not shown
B22: IL6R-BP202/IL6R-L (antibody, human IgG1, kappa, name in EU numbering)
heavy: B1 heavy with D235E, K328A
light: not shown
B23: IL6R-BP193/IL6R-L (antibody, human IgG1, kappa, name in EU numbering)
heavy: B1 heavy with D239G, H270D, R332K
light: not shown
B24: IL6R-BP211/IL6R-L (antibody, human IgG1, kappa, name in EU numbering)
heavy: B1 heavy with D239G, H270D, K328A
light: not shown
B25: IL6R-BP088/IL6R-L (antibody, human IgG1, kappa, name in EU numbering)
heavy: B1 heavy with D235E, G273P, K328A, R332K
light: not shown
B26: IL6R-BP086/IL6R-L (antibody, human IgG1, kappa, name in EU numbering)
heavy: B1 heavy with D235E, D239G, G273P, K328A, R332K
light: not shown
B27: IL6R-2B253/IL6R-L (antibody, human IgG1, kappa, name in EU numbering)
heavy: B1 heavy with D239G, G273P, V325M, R332A
light: not shown
B28: IL6R-BP082/IL6R-L (antibody, human IgG1, kappa, name in EU numbering)
heavy: B1 heavy with D239G, G273P, R332K
light: not shown
B29: IL6R-BP131/IL6R-L (antibody, human IgG1, kappa, name in EU numbering)
heavy: B1 heavy with G273P, R332K
light: not shown
B30: IL6R-BP152/IL6R-L (antibody, human IgG1, kappa, name in EU numbering)
heavy: B1 heavy with L236Y, G273P, Y298D, K328A
light: not shown
B31: IL6R-BP210/IL6R-L (antibody, human IgG1, kappa, name in EU numbering)
heavy: B1 heavy with D235E, H270D
light: not shown
B32: IL6R-BP212/IL6R-L (antibody, human IgG1, kappa, name in EU numbering)
heavy: B1 heavy with D239G, H270D, Y298D
light: not shown
B33: IL6R-BP181/IL6R-L (antibody, human IgG1, kappa, name in EU numbering)
heavy: B1 heavy with D239G, K328A, R332K
light: not shown

Molecular target: T1, human FcγRIa extracellular domain with C-terminal His tag (human, UniProt P12314 16-292)
T1 construct: Whole entry named; also called FcgRIa; FcgIa
T1 sequence (P12314 16-292): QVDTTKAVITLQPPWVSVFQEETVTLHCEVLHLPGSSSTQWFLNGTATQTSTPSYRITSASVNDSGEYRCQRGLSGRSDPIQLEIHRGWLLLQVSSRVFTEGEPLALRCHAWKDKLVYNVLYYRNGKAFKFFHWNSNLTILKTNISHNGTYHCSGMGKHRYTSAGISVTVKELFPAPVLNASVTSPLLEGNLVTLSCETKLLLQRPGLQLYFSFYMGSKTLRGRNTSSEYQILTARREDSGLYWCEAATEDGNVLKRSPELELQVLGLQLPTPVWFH
Assay: SPR; IL6R-BF648/IL6R-L=100
Protocol: (§1) IL6R-L was utilized as the common antibody L chain for all of the antibodies, the antibodies were expressed and purified according to the method of Reference Example 1, and binding to each of the FcγRs (FcγRIa, FcγRIIa type H, FcγRIIa type R, FcγRIIb, and FcγRIIIa type V) was comprehensively evaluated by the method of Reference Example 2.
(§2) Relative binding activities were calculated for the results of analyzing interactions with the respective FcγRs according to the following method.

Binder | relative binding activity
B1 | 57
B2 | 50
B3 | 19
B4 | 50
B5 | 97
B6 | 43
B7 | 102
B8 | 64
B9 | 110
B10 | 91
B11 | 39
B12 | 41
B13 | 33
B14 | 100
B15 | 125
B16 | 68

Binder | relative binding activity
B17 | 86
B18 | 109
B19 | 95
B20 | 68
B21 | 41
B22 | 43
B23 | 113
B24 | 128
B25 | 25
B26 | 72
B27 | 155
B28 | 74
B29 | 33
B30 | 34
B31 | 57
B32 | 117

Molecular target: T2, human FcγRIIa type H extracellular domain with C-terminal His tag (human, UniProt P12318 34-217)
T2 construct: extracellular domain; also called FcgRIIaH; FcγRIIa H
T2 sequence (looked up): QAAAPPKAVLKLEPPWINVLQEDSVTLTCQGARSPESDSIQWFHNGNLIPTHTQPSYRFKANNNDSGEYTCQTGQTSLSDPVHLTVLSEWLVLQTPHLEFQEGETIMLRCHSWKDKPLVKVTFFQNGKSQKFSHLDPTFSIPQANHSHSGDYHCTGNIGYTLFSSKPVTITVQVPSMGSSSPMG
Assay: SPR; IL6R-BF648/IL6R-L=100
Protocol: as §1, §2

Binder | relative binding activity
B1 | 359
B3 | 158
B4 | 224
B5 | 108
B6 | 186
B7 | 128
B8 | 108
B9 | 137
B10 | 130
B11 | 621
B12 | 151
B13 | 179
B15 | 145
B16 | 344
B17 | 143
B18 | 162
B19 | 139
B20 | 98
B21 | 224
B22 | 285
B23 | 154
B25 | 166
B26 | 116
B27 | 207
B28 | 106
B29 | 253
B30 | 548
B31 | 279
B32 | 135

Molecular target: T3, human FcγRIIb extracellular domain with C-terminal His tag (human, UniProt P31994 43-217)
T3 construct: extracellular domain; For crystals it was expressed with kifunensine and trimmed with Endo F1; also called FcgRIIb; FcγRIIb extracellular region
T3 sequence (looked up): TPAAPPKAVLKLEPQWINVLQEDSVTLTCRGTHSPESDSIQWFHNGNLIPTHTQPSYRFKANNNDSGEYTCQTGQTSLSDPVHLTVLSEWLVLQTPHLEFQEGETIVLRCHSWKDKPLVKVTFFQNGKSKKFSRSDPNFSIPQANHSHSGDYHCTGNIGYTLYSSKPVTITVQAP
Assay: SPR; IL6R-BF648/IL6R-L=100
Protocol: as §1, §2

Binder | relative binding activity
B1 | 186
B2 | 122
B3 | 152
B5 | 167
B6 | 147
B7 | 147
B8 | 121
B9 | 165
B10 | 150
B12 | 137
B13 | 137
B14 | 115
B17 | 133
B18 | 141
B19 | 173
B20 | 138
B21 | 152
B22 | 185
B23 | 173
B24 | 165
B25 | 161
B26 | 137
B27 | 156
B28 | 136
B30 | 178
B31 | 187
B32 | 173

Molecular target: T4, human FcγRIIIa type V extracellular domain with C-terminal His tag (human, UniProt P08637 17-208)
T4 construct: extracellular domain; also called FcgRIIIaV; FcγRIIIaV
T4 sequence (P08637 17-208 F176V): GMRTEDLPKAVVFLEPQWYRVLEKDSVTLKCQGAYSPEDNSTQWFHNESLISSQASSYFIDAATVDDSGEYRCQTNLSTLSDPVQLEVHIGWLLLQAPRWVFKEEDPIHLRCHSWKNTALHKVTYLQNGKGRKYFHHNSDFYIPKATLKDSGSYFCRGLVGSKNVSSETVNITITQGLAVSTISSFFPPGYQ
Assay: SPR; IL6R-BF648/IL6R-L=100
Protocol: as §1, §2

Binder | relative binding activity
B2 | 107
B33 | 122
B3 | 104
B4 | 155
B6 | 136
B8 | 128
B11 | 221
B12 | 114
B13 | 158
B14 | 87
B15 | 142
B16 | 221
B17 | 114
B18 | 106
B20 | 95
B21 | 153
B24 | 87
B25 | 122
B26 | 123
B27 | 126
B28 | 87
B29 | 118
